Measurements taken from the supplement of paper PMC9170038.

System: MS2 coat protein
Assay: apparent KD of MS2 coat protein; designed switch direction (-1 OFF switch, 1 ON switch): -1; higher = weaker reporter binding
Method in brief: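 Each step of the titration lasted 0.8–1.5 h at the lowest concentration and 10–20 min at the highest. The protein, SNAP-549-labelled MS2 coat protein, went from 0.7 or 1.5 nM doubling to 3 µM over RNA switches transcribed on Illumina chips by stalled E. coli RNA polymerase. Normalised cluster fluorescence was curve-fitted, and the per-design median over clusters is given as apparent KD.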

[1] = Eterna round: R95, input ligand: microRNA oligo, concentration not stated
[2] = input ligand: microRNA oligo, concentration not stated
[3] = Eterna round: R95, input ligand: FMN 200 uM
[4] = Eterna round: R95, input ligand: none

| Sequence | apparent KD of MS2 coat protein [1] [nM] | apparent KD of MS2 coat protein (input ligand: FMN 200 uM) [nM] | apparent KD of MS2 coat protein [2] [nM] | apparent KD of MS2 coat protein (input ligand: none) [nM] | apparent KD of MS2 coat protein [3] [nM] | apparent KD of MS2 coat protein [4] [nM] |
| --- | --- | --- | --- | --- | --- | --- |
| AAAAAACAAGGAUAUACGCAGGAGGGUUGUCUUAAUUUUUGACAUGAGGAUCACCCAUGUAGAAGGUGUUAAAA [JR_Exclusion2_Sub013] (puzzle: Exclusion 2) | 220 | – | – | – | – | – |
| AAAAAACAUGAGGAUCACCCAUGUGAGGAUAUCUGUAUUCAAUCCUCGGAUUGAAUACAGAGAAGGCACAUGGG [Ex1: 609] (Eterna round: R96, puzzle: Exclusion 1) | – | 48.5 | 29.2 | 27.8 | – | – |
| AAAAAGCGAGGAUAUGCAUAAGGACCCGGGAGGGAAGUCGAACAUGAGGAUCACCCAUGUAGAAGGCGCAAAAA [Exclss2-IV] (puzzle: Exclusion 2) | 11.5 | – | – | – | 16 | 15.4 |
| AAAAAGGUAGGAUAUACGAAAAAAAAGGGUAGAAAAAAAACACAUGAGGAUCACCCAUGUAGAAGGACCAAAAC [salish99_ex2_r3_046] (puzzle: Exclusion 2) | 33.4 | – | – | – | 66.7 | 30.2 |
| AAAACAAAAGGAUAUACAUGAGGAUCACCCAUGUGGCAUAAAAUCGCCGCUAAACCAUGUAGAAGGUUUGCGAA [EX3 A.6] (Eterna round: R97, puzzle: Exclusion 3) | – | 25.5 | – | 19.6 | – | – |
| AAAACGGACCGAGGAUAUACACGAUAUCUUUGCGUAGAAGGCGGACCGGCGACUUGAGGAUCACCCAAGUGUCCUCUUUUGCGG [Mutated MS2 EX1.4] (Eterna round: R96, puzzle: Exclusion NG 1) | – | 323 | 110 | 175 | – | – |
| AAAACUCACGUAGGAUAUCAUUCCUUAAGGUAGUGAGAAGGACGUGACUACAUGUCCUUGAACAUGAGGAUCACCCAUGUAGGC [Cerama] (Eterna round: R96, puzzle: Exclusion NG 1) | – | – | 36.5 | – | – | – |
| AAAAGAACAGGAUAUUCGGGAAAUAACAUGAGGAUCACCCAUGUUAACGCGGGUGAGAACGAAGAAGGGUUCUAAA [Atusceon] (puzzle: Exclusion 5) | 96.4 | – | – | – | 114 | 93.1 |
| AAAAGAAGUGUUAGGAUAUGUGGAAGUAGAAAGACACAGAAGGGACAUGAGGAUCACCCAUGUGGCCAAAGAAC [Vecedies] (puzzle: Brourd's mod of Exclusion 4) | 15.6 | – | – | – | 17.3 | 15.5 |
| AAAAGAUGAGGAUAUAUAUGGAAUCCAAGGCAUGUGCUCUCACAUGAGGAUCACCCAUGUAGAAGGCAUCUGCC [Laxetera] (puzzle: Exclusion 2) | 9.79 | – | – | – | – | – |
| AAAAGGCGAGGAUAUACAUGAGGAUCACCCAUGUGAAAGAAAGAAAGAAAGAAGAAAGGUAGAAGGCGCAAAGA [Mine, also!] (puzzle: Exclusion 3) | 42.6 | – | – | – | 83.6 | 67 |
| AAAAGGUCAGGAUAUCCAAGAAAAGAAAAGAAAAGAAAAGAGGAGAAGGGACAUGAGGAUCACCCAUGUAAAAG [Default title] (puzzle: Exclusion 4) | 42.7 | – | – | – | 39 | 38 |
| AAAAUGCAAGGAUAUCGCGAUAAAUACAUGAGGAUCACCCAUGUGAUUACGUGGGCACGGCGAGAAGGUGCUAAAA [Amadius] (puzzle: Exclusion 5) | 26.1 | – | – | – | 119 | 33.8 |
| AAAAUUGUAGGAUAUUAGGCAGACAACAUGAGGAUCACCCAUGUCCGUGAUCUUAGGCACUGAGAAGGAUAAGCCU [Eternabot (Original) Solution 23] (Eterna round: R97, puzzle: Exclusion 5) | – | 147 | – | 159 | – | – |
